These results are taken from patent publication US20050239706A1, “Modulation of fiaf and the gastrointestinal microbiota as a means to control energy storage in a subject” (Washington University in St. Louis, priority 2003, published 2005).

Experiment [1] has as its target Lipoprotein lipase (LPL) (mouse) (UniProt P11152). Nature of the experiment: cell-based or functional assay.
A further experiment concerns the target T1, LPL (Homo sapiens, UniProt P06858).
T1 sequence (P06858 28-475): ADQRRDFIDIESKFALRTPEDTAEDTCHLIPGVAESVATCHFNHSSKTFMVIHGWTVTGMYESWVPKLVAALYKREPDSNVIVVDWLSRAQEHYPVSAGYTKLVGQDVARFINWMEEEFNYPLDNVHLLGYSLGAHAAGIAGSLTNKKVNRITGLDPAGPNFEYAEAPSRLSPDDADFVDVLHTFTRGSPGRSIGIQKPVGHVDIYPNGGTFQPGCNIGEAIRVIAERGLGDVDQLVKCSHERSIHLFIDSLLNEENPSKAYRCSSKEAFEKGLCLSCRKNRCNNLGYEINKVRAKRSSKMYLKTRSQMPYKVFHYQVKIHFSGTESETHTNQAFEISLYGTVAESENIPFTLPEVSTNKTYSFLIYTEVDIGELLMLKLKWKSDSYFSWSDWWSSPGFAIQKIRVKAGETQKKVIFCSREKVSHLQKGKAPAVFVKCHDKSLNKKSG
To be noted: in vitro; read-out: IC50 for inhibition of LPL; cited from earlier work.

Sequence of Lipoprotein lipase (LPL) (mouse) (P11152 28-474 limits assumed): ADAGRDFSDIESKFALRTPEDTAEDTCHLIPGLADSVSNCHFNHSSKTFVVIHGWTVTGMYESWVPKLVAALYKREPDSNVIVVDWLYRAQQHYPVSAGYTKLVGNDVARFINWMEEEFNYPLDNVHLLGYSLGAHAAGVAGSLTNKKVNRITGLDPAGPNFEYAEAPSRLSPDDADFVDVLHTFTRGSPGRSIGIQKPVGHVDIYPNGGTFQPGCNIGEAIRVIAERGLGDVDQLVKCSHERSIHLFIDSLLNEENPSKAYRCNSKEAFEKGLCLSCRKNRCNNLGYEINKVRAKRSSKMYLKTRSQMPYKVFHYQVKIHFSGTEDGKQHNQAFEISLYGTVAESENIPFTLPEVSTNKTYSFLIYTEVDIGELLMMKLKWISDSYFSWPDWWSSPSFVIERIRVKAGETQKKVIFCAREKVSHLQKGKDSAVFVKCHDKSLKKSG

“Fasting-induced adipose factor (Fiaf) (from UniProt Q9Z1P8 24-410)” yielded an epididymal fat pad LPL activity, GF Fiaf-/- mice versus GF littermates containing the wild-type Fiaf allele in experiment [1] of 67 % higher.

B1: Fiaf: secreted protein, a potent inhibitor of LPL in vitro (protein)
chain: QGRPAQPEPPRFASWDEMNLLAHGLLQLGHGLREHVERTRGQLGALERRMAACGNACQGPKGKDAPFKDSEDRVPEGQTPETLQSLQTQLKAQNSKIQQLFQKVAQQQRYLSKQNLRIQNLQSQIDLLAPTHLDNGVDKTSRGKRLPKMTQLIGLTPNATHLHRPPRDCQELFQEGERHSGLFQIQPLGSPPFLVNCEMTSDGGWTVIQRRLNGSVDFNQSWEAYKDGFGDPQGEFWLGLEKMHSITGNRGSQLAVQLQDWDGNAKLLQFPIHLGGEDTAYSLQLTEPTANELGATNVSPNGLSLPFSTWDQDHDLRGDLNCAKSLSGGWWFGTCSHSNLNGQYFHSIPRQRQERKKGIFWKTWKGRYYPLQATTLLIQPMEATAAS
What is called IC50 is the point on the concentration scale where inhibition reaches its midpoint. B1: in the experiment with LPL, the IC50 was 200 nM.
